Numbering of substitutions follows the chain as printed.
B1: TAR1-5-19 3U homodimer (other)
chain: DIQMTQSPSSLSASVGDRVTITCRASQSIDSYLHWYQQKPGKAPKLLIYSASELQSGVPSRFSGSGSGTDFTLTISSLQPEDFATYYCQQVVWRPFTFGQGTKVEIKRGGGGSGGGGSGGGGSDIQMTQSPSSLSASVGDRVTITCRASQSIDSYLHWYQQKPGKAPKLLIYSASELQSGVPSRFSGSGSGTDFTLTISSLQPEDFATYYCQQVVWRPFTFGQGTKVEIKR
notes: also called TAR1-5-19 homodimer with (Gly4Ser)3 linker
B2: TAR1-5-19 5U homodimer (other)
chain: DIQMTQSPSSLSASVGDRVTITCRASQSIDSYLHWYQQKPGKAPKLLIYSASELQSGVPSRFSGSGSGTDFTLTISSLQPEDFATYYCQQVVWRPFTFGQGTKVEIKRGGGGSGGGGSGGGGSGGGGSGGGGSDIQMTQSPSSLSASVGDRVTITCRASQSIDSYLHWYQQKPGKAPKLLIYSASELQSGVPSRFSGSGSGTDFTLTISSLQPEDFATYYCQQVVWRPFTFGQGTKVEIKR
notes: also called TAR1-5-19 homodimer with (Gly4Ser)5 linker
B3: TAR1-5-19 7U homodimer (other)
chain: DIQMTQSPSSLSASVGDRVTITCRASQSIDSYLHWYQQKPGKAPKLLIYSASELQSGVPSRFSGSGSGTDFTLTISSLQPEDFATYYCQQVVWRPFTFGQGTKVEIKRGGGGSGGGGSGGGGSGGGGSGGGGSGGGGSGGGGSDIQMTQSPSSLSASVGDRVTITCRASQSIDSYLHWYQQKPGKAPKLLIYSASELQSGVPSRFSGSGSGTDFTLTISSLQPEDFATYYCQQVVWRPFTFGQGTKVEIKR
notes: also called TAR1-5-19 homodimer with (Gly4Ser)7 linker
B4: TAR1-5d1 (other)
chain: DIQMTQSPSSLSASVGDRVTITCRASQSIFMNLLWYQQKPGKAPKLLIYNASVLQSGVPSRFSGSGSGTDFTLTISSLQPEDFATYYCQQVVWRPFTFGQGTKVEIKRGGGGSGGGGSGGGGSDIQMTQSPSSLSASVGDRVTITCRASQSIYDALEWYQQKPGKAPKLLIYTASRLQSGVPSRFSGSGSGTDFTLTISSLQPEDFATYYCQQVMQRPVTFGQGTKVEIKR
notes: dAb-linker-dAb dimer; also called TAR1-5 dimer 1
B5: TAR1-5d5 (other)
chain: DIQMTQSPSSLSASVGDRVTITCRASQSIFMNLLWYQQKPGKAPKLLIYNASVLQSGVPSRFSGSGSGTDFTLTISSLQPEDFATYYCQQVVWRPFTFGQGTKVEIKRGGGGSGGGGSGGGGSGGGGSGGGGSDIQMTQSPSSLSASVGDRVTITCRASQSIYDALEWYQQKPGKAPKLLIYTASRLQSGVPSRFSGSGSGTDFTLTISSLQPEDFATYYCQQVMQRPVTFGQGTKVEIKR
notes: dAb-linker-dAb dimer; also called TAR1-5 dimer 5
B6: TAR1-5d6 (other)
chain: DIQMTQSPSSLSASVGDRVTITCRASQSIFMNLLWYQQKPGKAPKLLIYNASVLQSGVPSRFSGSGSGTDFTLTISSLQPEDFATYYCQQVVWRPFTFGQGTKVEIKRGGGGSGGGGSGGGGSGGGGSGGGGSGGGGSGGGGSDIQMTQSPSSLSASVGDRVTITCRASQSIYDALEWYQQKPGKAPKLLIYTASRLQSGVPSRFSGSGSGTDFTLTISSLQPEDFATYYCQQVMQRPVTFGQGTKVEIKR
notes: dAb-linker-dAb dimer; also called TAR1-5 dimer 6
B7: TAR1-5d4 (other)
chain: DIQMTQSPSSLSASVGDRVTITCRASQSIFMNLLWYQQKPGKAPKLLIYNASVLQSGVPSRFSGSGSGTDFTLTISSLQPEDFATYYCQQVVWRPFTFGQGTKVEIKRGGGGSGGGGSGGGGSGGGGSGGGGSDIQMTQSPSSLSASVGDRVTITCRASQSVKEFLWWYQQKPGKAPKLLIYMASNLQSGVPSRFSGSGSGTDFTLTISSLQPEDFATYYCQQKFKLPRTFGQGTKVEIKR
notes: dAb-linker-dAb dimer; also called TAR1-5 dimer 4
B8: MSA16 (other)
VL: DIQMTQSPSSLSASVGDRVTITCRASQSIIKHLKWYQQKPGKAPKLLIYGASRLQSGVPSRFSGSGSGTDFTLTISSLQPEDFATYYCQQGARWPQTFGQGTKVEIK
notes: also called clone 16; clone 21
B9: MSA26 (other)
VL: B8 VL with I30Y, K31Y, G50K, R53T, G91V, A92R, R93K, W94V, Q96R
notes: also called clone 26; clone 25
B10: TAR1-5-19 d1 (other)
chain: B4 chain with F30D, M31S, N32Y, L34H, N50S, V53E
notes: TAR1-5-19 substituted for TAR1-5 in lead clone d1
B11: TAR1-5-19d5 (other)
chain: B5 chain with F30D, M31S, N32Y, L34H, N50S, V53E
B12: TAR1-5-19 d6 (other)
chain: B6 chain with F30D, M31S, N32Y, L34H, N50S, V53E
B13: TAR1-27d16 (other)
chain: DIQMTQSPSSLSASVGDRVTITCRASQSIWTKLHWYQQKPGKAPKLLIYMASSLQSGVPSRFSGSGSGTDFTLTISSLQPEDFATYYCQQWFSNPSTFGQGTKVEIKRGGGGSGGGGSGGGGSDIQMTQSPSSLSASVGDRVTITCRASQSIGPNLEWYQQKPGKAPKLLIYAASSLQSGVPSRFSGSGSGTDFTLTISSLQPEDFATYYCQQQMGRPRTFGQGTKVEIKR
notes: dAb-linker-dAb dimer; also called TAR1-27 dimer d16
B14: TAR1-5-19, MSA16 cys bonded heterodimer (bispecific antibody, V domains shown)
V domain 1: DIQMTQSPSSLSASVGDRVTITCRASQSIDSYLHWYQQKPGKAPKLLIYSASELQSGVPSRFSGSGSGTDFTLTISSLQPEDFATYYCQQVVWRPFTFGQGTKVEIKR
V domain 2: DIQMTQSPSSLSASVGDRVTITCRASQSIIKHLKWYQQKPGKAPKLLIYGASRLQSGVPSRFSGSGSGTDFTLTISSLQPEDFATYYCQQGARWPQTFGQGTKVEIKR
modifications: C-terminal Cys disulphide bonded to the C-terminal Cys of the MSA16 chain ; Chain 1 pos 109 Cys and chain 2 pos 109 Cys are joined by an intermolecular disulphide bond, made by chemical coupling via dithiodipyridine activation.
notes: Made by chemical coupling via a disulphide bond; separated from monomers by cation exchange; also called disulphide bonded heterodimer of TAR1-5-19 dAb and MSA16 dAb; cys bonded TAR1-5-19, MSA16 dimer
B15: TAR1-5-19CYS dimer (other)
VL: DIQMTQSPSSLSASVGDRVTITCRASQSIDSYLHWYQQKPGKAPKLLIYSASELQSGVPSRFSGSGSGTDFTLTISSLQPEDFATYYCQQVVWRPFTFGQGTKVEIKRC
modifications: C-terminal Cys forms the disulphide between the two chains
notes: Dimer via the engineered C-terminal cysteine, purified by protein L and cation exchange; also called TAR1-5-19CYS disulphide dimer
B16: TAR1-5-19 cys hinge dimer (other)
chain: DIQMTQSPSSLSASVGDRVTITCRASQSIDSYLHWYQQKPGKAPKLLIYSASELQSGVPSRFSGSGSGTDFTLTISSLQPEDFATYYCQQVVWRPFTFGQGTKVEIKREPKSGDKTHTCPPCP
modifications: hinge cysteines form the cystine bond(s) between the two chains
notes: Dimerises in the periplasm; FPLC purified dimer fraction tested; also called cysteine hinge linker format
B17: TAR1-5CH/dAb1 CK Fab (Fab, V domains shown, not shown: large carriers)
V domain 1: B14 V domain 1 with D30F, S31M, Y32N, H34L, S50N, E53V
V domain 2: B14 V domain 1 with D30Y, S31D, Y32A, H34E, S50T, E53R, V92M, W93Q, F96V
B18: dAb3CH/TAR1-5CK Fab (Fab, V domains shown, not shown: large carriers)
V domain 1: DIQMTQSPSSLSASVGDRVTITCRASQSVKEFLWWYQQKPGKAPKLLIYMASNLQSGVPSRFSGSGSGTDFTLTISSLQPEDFATYYCQQKFKLPRTFGQGTKVEIKR
V domain 2: B14 V domain 1 with D30F, S31M, Y32N, H34L, S50N, E53V
notes: also called TAR1-5CK d3CH
B19: TAR1-5-19CH/dAb1 CK Fab (Fab, V domains shown, not shown: large carriers)
V domain 1: B14 V domain 1
V domain 2: B14 V domain 1 with D30Y, S31D, Y32A, H34E, S50T, E53R, V92M, W93Q, F96V
notes: also called TAR1-5-19CH d1CK
B20: TAR1-5-19CH/dAb3CK Fab (Fab, V domains shown, not shown: large carriers)
V domain 1: B14 V domain 1
V domain 2: B18 V domain 1
notes: also called TAR1-5-19CH d3CK
B21: dAb1 CH/TAR1-5-19CK Fab (Fab, V domains shown, not shown: large carriers)
V domain 1: B14 V domain 1 with D30Y, S31D, Y32A, H34E, S50T, E53R, V92M, W93Q, F96V
V domain 2: B14 V domain 1
notes: also called TAR1-5-19CK d1CH

These binders were tested against T1, human TNFα (human, UniProt P01375 77-233) (assay: cell-based or functional assay).
T1 sequence (P01375 77-233 limits assumed): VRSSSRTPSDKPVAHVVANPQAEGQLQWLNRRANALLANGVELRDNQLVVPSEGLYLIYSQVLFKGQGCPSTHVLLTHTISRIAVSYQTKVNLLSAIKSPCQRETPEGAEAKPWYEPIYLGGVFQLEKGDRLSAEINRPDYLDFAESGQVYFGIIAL
B1 was tested, and the “CA (cell assay, ND50)” value was ~30 nM. In the case of B2, the “CA (cell assay, ND50)” value is reported as ~3 nM. B3 was tested, and the “CA (cell assay, ND50)” value was ~15 nM.

These binders were tested against T1, human TNFα (assay: TNF receptor assay: inhibition of TNF binding to TNFR1-Fc (ELISA)).
B4 showed an IC50 of ~30 nM. B5 was tested, and the IC50 was ~200 nM. B6 gave an IC50 of ~100 nM. B7 was tested, and the IC50 was ~3 nM.

What follows are binders tested against T2, mouse serum albumin (MSA) (mouse, UniProt P07724 25-608) (assay: inhibition biacore: dAb premixed with MSA, binding to MSA-coated CM5 chip, Klotz plot (estimated Kd)).
T2 construct: Used coated, on a CM5 chip, in solution and biotinylated (about 2 biotins per molecule); also called biotinylated MSA
T2 sequence (P07724 25-608 limits assumed): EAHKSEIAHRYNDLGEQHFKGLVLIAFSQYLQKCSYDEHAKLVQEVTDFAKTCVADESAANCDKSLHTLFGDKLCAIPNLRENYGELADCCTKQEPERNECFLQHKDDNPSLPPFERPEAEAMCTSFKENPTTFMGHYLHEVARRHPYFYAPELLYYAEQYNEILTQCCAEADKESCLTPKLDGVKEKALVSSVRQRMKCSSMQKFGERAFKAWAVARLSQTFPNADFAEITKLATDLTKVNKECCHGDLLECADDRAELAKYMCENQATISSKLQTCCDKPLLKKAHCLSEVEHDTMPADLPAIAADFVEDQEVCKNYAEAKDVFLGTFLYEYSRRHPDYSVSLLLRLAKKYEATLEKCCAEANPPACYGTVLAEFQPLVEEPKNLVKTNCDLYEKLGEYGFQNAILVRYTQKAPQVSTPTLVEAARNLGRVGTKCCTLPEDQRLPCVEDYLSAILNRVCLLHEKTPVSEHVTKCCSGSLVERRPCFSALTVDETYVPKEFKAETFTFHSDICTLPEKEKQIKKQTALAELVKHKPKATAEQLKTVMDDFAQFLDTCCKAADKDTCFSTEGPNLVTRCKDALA
Method: Briefly, the dAbs were tested to determine the concentration of dAb required to achieve 200 RUs of response on a biacore CM5 chip coated with a high density of MSA. Once the required concentrations of dAb had been determined, MSA antigen at a range of concentrations around the expected Kd was premixed with the dAb and incubated overnight. Binding to the MSA coated biacore chip of dAb in each of the premixes was then measured at a high flow-rate of 30 μl/minute.
The purified dAbs were then analysed by inhibition biacore to determine Kd. […] Once the required concentrations of dAb had been determined, MSA antigen at a range of concentrations around the expected Kd was premixed with the dAb and incubated overnight. Binding to the MSA coated biacore chip of dAb in each of the premixes was then measured at a high flow-rate of 30 μl/minute.
Work on B8 yielded a Kd of 200 nM. B9 was tested, and the Kd was 70 nM.

Molecular target: T1, human TNFα
Assay: TNF receptor assay: inhibition of TNF binding to TNFR1-Fc (ELISA)
Remark: another data set of the same source
B10 gave an IC50 of ~15 nM. In the case of B11, the IC50 is reported as ~8 nM. B12 showed an IC50 of ~10 nM.

Molecular target: T1, human TNFα
Assay: as above
Remark: another data set of the same source
B13 was tested, and the IC50 was ~50 nM. B14 was tested, and the IC50 was ~18 nM. In the case of B15, the IC50 is reported as 0.3 to 0.8 nM.

Molecular target: T1, human TNFα
Assay: as above
Remark: another data set of the same source
With B1 the IC50 was ~20 nM. In the case of B2, the IC50 is reported as ~2 nM. B3 gave an IC50 of ~10 nM. In the case of B16, the IC50 is reported as ~2 nM.

Molecular target: T1, human TNFα
Assay: as above
Remark: another data set of the same source
B17 was tested, and the IC50 was ~90 nM. In the case of B18, the IC50 is reported as ~100 nM. B19 showed an IC50 of ~6 nM. B20 was tested, and the IC50 was ~3 nM. Work on B21 yielded an IC50 of ~6 nM.

Source: patent US20110223168A1 (published 2011)
